US20220153821A1 (PROTHENA BIOSCIENCES, published 2022)

What was measured:
recombinant human tau [1] = target: T1, recombinant human tau (human, UniProt P10636-6 1-383, limits assumed); assay: SPR, Biacore T200, antibody captured by anti-human antibody, tau as analyte, single cycle, 1:1 fit
T1 construct: also called recombinant tau
Method: Affinity of purified humanized variants to tau were determined by surface plasmon resonance (SPR). SPR analysis was performed using a Biacore T200 to determine the binding kinetics of humanized antibodies to recombinant human tau. To prepare a sensor surface, anti-human antibody (GE Life Sciences) was immobilized on sensor chip CM3 via amine coupling, and antibody was captured at a level to ensure maximum binding of 50 RU. Various concentrations of recombinant tau ranging from 50-0.62 nM were passed over the captured ligand at a flow rate of 50 μL/min in running buffer (HBS+0.05% P-20, 1 mg/mL BSA), in a single cycle manner. Data were double-referenced to both an irrelevant sensor not containing antibody ligand, and 0 nM analyte concentration to account for the dissociation of ligand from the capture moiety. Data were then analyzed using a 1:1 fit. Results are presented in Table 9, in columns labeled “k₀ (M⁻¹s⁻¹), koff (s⁻¹), and Kd (nM).”

recombinant human tau [2] = target: recombinant human tau (human, UniProt P10636 1-383); assay: SPR, Biacore T200: antibody captured on anti-mouse CM5 chip, recombinant human tau 10-0.14 nM as analyte, global 1:1 fit
Method: (§1) Methods: SPR analysis was performed using a Biacore T200 to determine the binding kinetics of murine antibodies to recombinant human tau. To prepare a sensor surface, anti-mouse antibody (GE Life Sciences) was immobilized on sensor chip CM5 via amine coupling, and antibody was captured at a level to ensure maximum binding of 50 RU. Various concentrations of recombinant tau ranging from 10-0.14 nM were passed over the captured ligand at a flow rate of 50 μL/min in running buffer (HBS+0.05% P-20, 1 mg/mL BSA), for 180 sec association and 900 sec dissociation. Data were double-referenced to both an irrelevant sensor not containing antibody ligand, and 0 nM analyte concentration to account for the dissociation of ligand from the capture moiety. Data was then analyzed using a global 1:1 fit.
(§2) Results: Multiple murine antibodies were selected based on their performance in a battery of ELISA assays, and their binding affinities were assessed via SPR. Antibodies were tested in parallel sets, and their binding association and dissociation rates were compared to select the highest binder to recombinant human tau.

recombinant human tau [3] = target: T1, recombinant human tau; assay: as above
Method: as §1, §2

recombinant human tau (human, UniProt P10636 1-383), sequence (P10636 other isoform, or with tags, fused parts or gaps): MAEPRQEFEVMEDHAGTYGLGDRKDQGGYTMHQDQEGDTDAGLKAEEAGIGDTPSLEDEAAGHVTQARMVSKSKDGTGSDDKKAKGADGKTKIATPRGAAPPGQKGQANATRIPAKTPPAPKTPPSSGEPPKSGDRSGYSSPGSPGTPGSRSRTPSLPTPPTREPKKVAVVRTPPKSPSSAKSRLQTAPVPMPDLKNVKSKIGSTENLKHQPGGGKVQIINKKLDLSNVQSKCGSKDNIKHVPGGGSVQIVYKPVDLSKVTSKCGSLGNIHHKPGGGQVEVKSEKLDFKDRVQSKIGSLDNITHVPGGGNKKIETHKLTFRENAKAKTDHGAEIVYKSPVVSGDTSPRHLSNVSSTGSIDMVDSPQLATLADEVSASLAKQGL
T1 sequence (P10636 other isoform, or with tags, fused parts or gaps limits assumed): as the sequence (P10636 other isoform, or with tags, fused parts or gaps) above

Kd (recombinant human tau [1]) | koff (recombinant human tau [1]) | kon (recombinant human tau [1]) | Binder | further results
4.2 nM | 0.0029 s⁻¹ | 690000 M⁻¹ s⁻¹ | Hu3D6VHvb4 / Hu3D6VLvb2 (antibody, V domains shown, Humanized 3D6 variant, expressed as intact antibody in HEK-293 cells; also called VHvb4/VLvb2) VH: EVQLVQSGAEVVKPGATVKISCKASGFTIKDYYLHWVRQRPGKGLEWIGWIDPENGDTIYDPKFQGRVTITADTSTDTAYMELSSLRSEDTAVYYCSTLDFWGQGTLVTVSS VL: not shown | –
0.107 nM | 0.000369 s⁻¹ | 3.45e+06 M⁻¹ s⁻¹ | Hu3D6VHvb6 / Hu3D6VLvb2 (antibody, V domains shown, Humanized 3D6 variant, expressed as intact antibody in HEK-293 cells; also called VHvb6/VLvb2) VH: EVQLVQSGAEVVKPGATVKISCKASGFTIKDYYLHWVRQRPGKGLEWIGWIDPEDGETVYDPKFQGRVTITADTSTDTAYMELSSLRSEDTAVYFCSTLDFWGQGTLVTVSS VL: not shown | –
0.19 nM | 0.0003 s⁻¹ | 1.6e+06 M⁻¹ s⁻¹ | Hu3D6VHvb2 / Hu3D6VLvb3 (antibody, V domains shown, Humanized 3D6 variant, expressed as intact antibody in HEK-293 cells; also called VHvb2/VLvb3) VH: EVQLVQSGAEVVKPGASVKISCKASGFNIKDYYLHWVRQRPGKGLEWIGWIDPENGDTVYDPKFQGRATITADTSTDTAYLELSSLTSEDTAVYFCSTLDFWGQGTLVTVSS VL: DVVMTQSPLSLSVTLGEPASISCRSSQSLLDSDGKTYLNWLQQRPGQSPRRLIYLVSKLDSGVPDRFSGSGSGTDFTLKISRVEAEDVGVYYCWQGTHFPYTFGQGTKLEIKR | –
0.252 nM | 0.000779 s⁻¹ | 3.09e+06 M⁻¹ s⁻¹ | Hu3D6VHvb7 / Hu3D6VLvb2 (antibody, V domains shown, Humanized 3D6 variant, expressed as intact antibody in HEK-293 cells; also called VHvb7/VLvb2) VH: EVQLVQSGAEVVKPGATVKISCKASGFTIKDYYLHWVRQRPGKGLEWIGWIDPEDGETVYDPKFQGRVTITADTSTDTAYMELSSLRSEDTAVYYCSTLDFWGQGTLVTVSS VL: not shown | –
1.4 nM | 0.0028 s⁻¹ | 2e+06 M⁻¹ s⁻¹ | Hu3D6VHvb5 / Hu3D6VLvb3 (antibody, V domains shown, Humanized 3D6 variant, expressed as intact antibody in HEK-293 cells; also called VHvb5/VLvb3) VH: EVQLVQSGAEVVKPGATVKISCKASGFTIKDYYLHWVRQRPGKGLEWIGWIDPEDGETIYDPKFQGRVTITADTSTDTAYMELSSLRSEDTAVYYCSTLDFWGQGTLVTVSS VL: DVVMTQSPLSLSVTLGEPASISCRSSQSLLDSDGKTYLNWLQQRPGQSPRRLIYLVSKLDSGVPDRFSGSGSGTDFTLKISRVEAEDVGVYYCWQGTHFPYTFGQGTKLEIKR | –
3.74 nM | 0.0034 s⁻¹ | 910000 M⁻¹ s⁻¹ | Hu3D6VHvb4 / Hu3D6VLvb3 (antibody, V domains shown, Humanized 3D6 variant, expressed as intact antibody in HEK-293 cells; also called VHvb4/VLvb3) VH: EVQLVQSGAEVVKPGATVKISCKASGFTIKDYYLHWVRQRPGKGLEWIGWIDPENGDTIYDPKFQGRVTITADTSTDTAYMELSSLRSEDTAVYYCSTLDFWGQGTLVTVSS VL: DVVMTQSPLSLSVTLGEPASISCRSSQSLLDSDGKTYLNWLQQRPGQSPRRLIYLVSKLDSGVPDRFSGSGSGTDFTLKISRVEAEDVGVYYCWQGTHFPYTFGQGTKLEIKR | –
0.209 nM | 0.00077 s⁻¹ | 3.69e+06 M⁻¹ s⁻¹ | Hu3D6VHvb7 / Hu3D6VLvb3 (antibody, V domains shown, Humanized 3D6 variant, expressed as intact antibody in HEK-293 cells; also called VHvb7/VLvb3) VH: EVQLVQSGAEVVKPGATVKISCKASGFTIKDYYLHWVRQRPGKGLEWIGWIDPEDGETVYDPKFQGRVTITADTSTDTAYMELSSLRSEDTAVYYCSTLDFWGQGTLVTVSS VL: DVVMTQSPLSLSVTLGEPASISCRSSQSLLDSDGKTYLNWLQQRPGQSPRRLIYLVSKLDSGVPDRFSGSGSGTDFTLKISRVEAEDVGVYYCWQGTHFPYTFGQGTKLEIKR | –
0.04 nM | 5.7e-05 s⁻¹ | 1.5e+06 M⁻¹ s⁻¹ | Hu3D6VHvb2 / Hu3D6VLvb2 (antibody, V domains shown, Humanized 3D6 variant, expressed as intact antibody in HEK-293 cells; also called VHvb2/VLvb2) VH: EVQLVQSGAEVVKPGASVKISCKASGFNIKDYYLHWVRQRPGKGLEWIGWIDPENGDTVYDPKFQGRATITADTSTDTAYLELSSLTSEDTAVYFCSTLDFWGQGTLVTVSS VL: not shown | –
0.152 nM | 0.000538 s⁻¹ | 3.54e+06 M⁻¹ s⁻¹ | Hu3D6VHvb6 / Hu3D6VLvb3 (antibody, V domains shown, Humanized 3D6 variant, expressed as intact antibody in HEK-293 cells; also called VHvb6/VLvb3) VH: EVQLVQSGAEVVKPGATVKISCKASGFTIKDYYLHWVRQRPGKGLEWIGWIDPEDGETVYDPKFQGRVTITADTSTDTAYMELSSLRSEDTAVYFCSTLDFWGQGTLVTVSS VL: DVVMTQSPLSLSVTLGEPASISCRSSQSLLDSDGKTYLNWLQQRPGQSPRRLIYLVSKLDSGVPDRFSGSGSGTDFTLKISRVEAEDVGVYYCWQGTHFPYTFGQGTKLEIKR | –
1.13 nM | 0.0018 s⁻¹ | 1.6e+06 M⁻¹ s⁻¹ | Hu3D6VHvb3 / Hu3D6VLvb3 (antibody, V domains shown, Humanized 3D6 variant, expressed as intact antibody in HEK-293 cells; also called VHvb3/VLvb3) VH: EVQLVQSGAEVVKPGATVKISCKASGFNIKDYYLHWVRQRPGKGLEWIGWIDPENGDTIYDPKFQGRATITADTSTDTAYMELSSLRSEDTAVYYCSTLDFWGQGTLVTVSS VL: DVVMTQSPLSLSVTLGEPASISCRSSQSLLDSDGKTYLNWLQQRPGQSPRRLIYLVSKLDSGVPDRFSGSGSGTDFTLKISRVEAEDVGVYYCWQGTHFPYTFGQGTKLEIKR | –
1.07 nM | 0.0015 s⁻¹ | 1.4e+06 M⁻¹ s⁻¹ | Hu3D6VHvb3 / Hu3D6VLvb2 (antibody, V domains shown, Humanized 3D6 variant, expressed as intact antibody in HEK-293 cells; also called VHvb3/VLvb2) VH: EVQLVQSGAEVVKPGATVKISCKASGFNIKDYYLHWVRQRPGKGLEWIGWIDPENGDTIYDPKFQGRATITADTSTDTAYMELSSLRSEDTAVYYCSTLDFWGQGTLVTVSS VL: not shown | –
1.44 nM | 0.0026 s⁻¹ | 1.8e+06 M⁻¹ s⁻¹ | Hu3D6VHvb5 / Hu3D6VLvb2 (antibody, V domains shown, Humanized 3D6 variant, expressed as intact antibody in HEK-293 cells; also called VHvb5/VLvb2) VH: EVQLVQSGAEVVKPGATVKISCKASGFTIKDYYLHWVRQRPGKGLEWIGWIDPEDGETIYDPKFQGRVTITADTSTDTAYMELSSLRSEDTAVYYCSTLDFWGQGTLVTVSS VL: not shown | –
0.64 nM | 0.0009 s⁻¹ | 1.4e+06 M⁻¹ s⁻¹ | Hu3D6VHvb1 / Hu3D6VLvb1 (antibody, V domains shown, Humanized 3D6 variant, transiently expressed as intact antibody in HEK-293 cells; also called VHvb1/VLvb1) VH: QVQLQQSGAELVKPGASVKLSCTASGFNIKDYYLHWVKQRPEQGLEWIGWIDPENGDTVYDPKFQGKATITADTSSNTAYLQLSSLTSEDTAVYFCSTLDFWGQGTTLTVSS VL: not shown | –
– | – | – | 8A4 (antibody, V domains shown) VH: EVQLQQSGAELVRPGALVKLSCKASGFNIKDYYIHWVKQRPEQGLEWIGWIDPENGDTVYDPQFQDKANITADTSSNTAYLQLSSLTSEGTAVYYCSTLDFWGQGTTLTVSS VL: not shown | Kd (recombinant human tau [2]): 3.8 nM; koff (recombinant human tau [2]): 0.00227 s⁻¹; kon (recombinant human tau [2]): 599000 M⁻¹ s⁻¹
– | – | – | mouse 3D6 antibody (antibody, V domains shown, Mouse monoclonal antibody from hybridoma; also called murine 3D6; m3D6) VH: EVQLQQSGADLVRPGALVKLSCKASGFNIKDYYLHWVRQRPEQGLEWIGWIDPENGDTVYDPKFQGKATITADTSSNTAYLQLGSLTSEDTAVYFCSTLDFWGQGTTLTVSS VL: not shown | Kd (recombinant human tau [3]): 0.46 nM; koff (recombinant human tau [3]): 0.00119 s⁻¹; kon (recombinant human tau [3]): 2.58e+06 M⁻¹ s⁻¹
– | – | – | anti-tau antibody 5G8 (antibody, V domains shown) VH: EVQLQQSGAELVRSGASVRLSCTASGFNIKDYYMHWVRQRPEQGLEWIGWIDPENGDTVYAPKFQGKATMTSDTSSNTAYLHLSSLTSEDTAVYYCSPLDFWGQGTTLTVSS VL: not shown | Kd (recombinant human tau [2]): 6.78 nM; koff (recombinant human tau [2]): 0.00254 s⁻¹; kon (recombinant human tau [2]): 375000 M⁻¹ s⁻¹
